According to paper PMC6160918, “Stabilization of the CD81 Large Extracellular Loop with De Novo Disulfide Bonds Improves Its Amenability for Peptide Grafting” (Pharmaceutics, 2018):
Changes are numbered by the printed parent chain.

B1: wild-type human CD81 large extracellular loop, P60033 113-201 (domain or fragment)
chain: FVNKDQIAKDVKQFYDQALQQAVVDDDANNAKAVVKTFHETLDCCGSSTLTALTTSVLKNNLCPSGSNIISNLFKEDCHQKIDDLFSGK
B2: hCD81 LEL variant C10 (Val169Cys/Leu174Cys) (domain or fragment, human, UniProt P60033 113-201, looked up)
chain: B1 chain with V57C, L62C
notes: human CD81, large extracellular loop, fragment Phe113-Lys201; numbering according to PDB entry 1G8Q; Excluded from further analysis because of the dimer it formed; the dimer may be a disulfide-linked one (surmise); source: HEK293-6E, transfected, 2-mL scale (prescreening)

How the values were obtained:
[1] = target: T1, wild-type human CD81 large extracellular loop (human), P60033; assay: SEC-MALS; Superdex 200 Increase 10/300 GL, PBS with 200 mM NaCl, 0.75 mL/min, 200 µg of protein at about 2 mg/mL loaded; in-line MALS (miniDAWN TREOS II); conditions: remark: other sources report otherwise
T1 chain: B1 chain

[2] = target: the molecule itself; assay: not stated; prescreening of mutants expressed in HEK293-6E at a 2-mL scale; how the dimer was seen is not told

Binder | stoichiometry N [1] | stoichiometry N [2]
B1 | 2 | 
B2 |  | 2
